Laboratory results taken from the supplement of paper PMC9170038.

System: K4 kissing-loop RNA reporter
Assay: apparent KD of K4 kissing-loop reporter; higher = weaker reporter binding
Conditions: Eterna round: R107
Experimental: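 RNA-MaP round R107: designed RNA switches with theophylline, tryptophan, arginine or FMN aptamers are transcribed on-chip within common flanks. They are titrated with a labelled K4 kissing-loop RNA reporter in RNA-MaP buffer (100 mM Tris pH 7.5, 80 mM KCl, 4 mM MgCl2), without ligand or with the indicated ligand. Median apparent KD per design.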

[1] = input ligand: theophylline 20 uM
[2] = input ligand: tryptophan 2.4 mM
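Also: bound reporter read as fluorescence of individual clusters on recovered sequencing chips by microscopy, with normalized cluster intensities fitted with a binding model.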

| Sequence | apparent KD of K4 kissing-loop reporter (input ligand: FMN 200 uM) [nM] | apparent KD of K4 kissing-loop reporter (input ligand: arginine 13.2 mM) [nM] | apparent KD of K4 kissing-loop reporter (input ligand: none) [nM] | apparent KD of K4 kissing-loop reporter [1] [nM] | apparent KD of K4 kissing-loop reporter [2] [nM] |
| --- | --- | --- | --- | --- | --- |
| CCGGGCGGCCGAAGGAGCGGGCGGACCCGAGUGAUGUUCGGGUGGACCGUGAGGUCCGGUGCCCAGGUAGGUCGCGGUUCCGCCC [#2 Same State - Arginine B Attempt #5 (HarryS)] | 117 | 123 | 129 | 118 | 120 |
| CCUAGUCGGAUACUCAAUCCAAUGCGAGAUACCAGCGGUCUUACGCGCCCUUGGCAGCUCAUAAUGAUGAACCAGUGAUGUUGGG [theeternabot_sameState_KL_Theo_A_40] | 423 | 268 | 397 | 446 | 368 |
| CCUAUCUCAUACGAUACCAGUCCGAGUGAUGUUCGAAAAUAAAUAAAUUUGCCAUAUAAUGACCCUUGGCAGCGUAUGGGAUAGG [Ex Theophylline B K4 11] | 354 | 296 | 351 | 400 | 300 |
| CCUAUCUCAUACGAUACCAGUGAAUUAAUAUUUAUAAGCAGUGAUGUUGCAUUCCAAGUACACCCUUGGCAGCGUAUGGGAUAGG [Ex Theophylline B K4 20] | 147 | 151 | 151 | 159 | 120 |
| CCUAUCUGUUACGAUACCAGUCAAAGAUAUUUUAUCAAUGCCCUCACCGAGUGAUGUUCGGACCCUUGGCAGCGUCUGGGAUAGG [pnnbmullin] | 187 | 138 | 185 | 119 | 150 |
| CCUGAUCCUAGUGAUGUUAGGUCCAACGGCCGAGGACCGGUACGGCCGCCACUCGUCAAUUGGAAACAGCCCACGGGCACCGGGU [theeternabot_sameState_KL_Trp_A_19] | 825 | 502 | 906 | 814 | 783 |
| CGAAAUAGAACGGCCGCCACUGUAAGUCCUGACAGUAAGUGAUGUUUGAAAGAUUCGGGUAUUCGCAGGACCGGGUUCGUCAUAA [theeternabot_sameState_KL_Trp_B_13] | 886 | 844 | 1260 | 759 | 754 |
| CGAAGAGAGUGAUGUUCUCUAGGCAAAAGAAAGGAUAUAAUGUUUGUUAGAAGGUUCGGAAAAUGGAACGUCGGCCCGUACAACC [theeternabot_exclusion_KL_FMN_A_18] | 151 | 129 | 139 | 127 | 121 |
| CGAGUGAUGUUCGAAGAGUUGUUAAGCGAUACCAGCUAGGAAACUGGCCCUUGGCAGCGUAAUAAGUUAAUAAAUAAAUGAUCAC [whbob_Ex_Theo_A_th64] | 376 | 411 | 360 | 449 | 301 |
| CGAGUGAUGUUCGUUCGUUUAUUUCGUUGACAGGAUAUGCGGAAACGCAGAAGGGUCACCUUUGAGUUAACGGAAUUUACGUUAU [Ex FMN A 27] | 614 | 487 | 587 | 552 | 546 |
| CGAGUGAUGUUCGUUCGUUUAUUUGGGUGACAGGAUAUGCGGAAACGCAGAAGGGUCACCUUCGGGUUACCCGAAUUAACGUUAU [#09 K4 FMN A Exclusion] | 724 | 520 | 688 | 587 | 717 |
| CGCAAGCAGCCAGUGAUGUUGGCCGCCUUGCGAGGACCGGUACGGCCGCCACUCGAAGGCGGCUACUGGUAAACCGCCUAACGGA [Onzaenla] | 93.3 | 83.6 | 92.9 | 85.4 | 96.4 |
| CGCAAGCAGCCAGUGAUGUUGGCCGCCUUGCGAGGACCGGUACGGCCGCCACUCGAAGGCGGCUAGUAGUAGUCUGUCUAACGGA [KL-XTryp-A16] | 104 | 107 | 112 | 74 | 184 |
| CGCAAGCAGCCAGUGAUGUUGGCUGCCUUGCGAGGACCGGUACGGCCGCCACUCGAAGGCAGCUACUGGUAAACCGUCUAACGGA [Atere] | 117 | 105 | 111 | 90.7 | 250 |
| CGCAAUCGAACUGAUACCAGUCAUAAUGGCUGAGAAGCACGAGUGAUGUUCGUAACGAAUGACCCUUGGCAGCAGUUCGAUUGCG [Theo B SS t8] | 706 | 807 | 944 | 330 | 839 |
| CGCAGUGAUGUUGCGAACAUAAUGCAUUCAGAGGAUAUUCGUUUGGGAAGAAGGCUGAAUCGUUUUUCGAGUGAUGUUUGAGGAA [Same State FMN A GF 18] | 106 | 88.2 | 114 | 91 | 94.6 |

| Sequence | apparent KD of K4 kissing-loop reporter (input ligand: FMN 200 uM) [nM] | apparent KD of K4 kissing-loop reporter (input ligand: arginine 13.2 mM) [nM] | apparent KD of K4 kissing-loop reporter (input ligand: none) [nM] | apparent KD of K4 kissing-loop reporter [1] [nM] | apparent KD of K4 kissing-loop reporter [2] [nM] |
| --- | --- | --- | --- | --- | --- |
| CGCAGUGAUGUUGCGAGUAGAUACAGGGAAGGAGCGCCGUAGUAGGCAGGUAGGUCGCCCACGCAGUGAUGUUGCGUCAUAGGGU [Exclusion Arginine A GF 5] | 104 | 91.8 | 97.1 | 116 | 87.6 |
| CGCAGUGAUGUUGCGAGUAGCUACAGGGAAGGAGCGCGCUAGUGCGCAGGUAGGUCGCCCACGCAGUGAUGUUGCGUCAUAGGGU [Exclusion Arg A GF8] | 139 | 114 | 114 | 137 | 109 |
| CGCAGUGAUGUUGCUAUUAUUCUUGAUUAACGAGGACCGGUACGGCCGCCACUCGAUUUCUAUCUGAUCCAGUGUUUUGUUGAGU [#22 K4 Tryptophan A Exclusion] | 296 | 364 | 396 | 360 | 182 |
| CGCAGUGAUGUUGCUAUUAUUCUUGGUUAACGAGGACCGGUACGGCCGCCACUCGGUUUCUAUCUAAUCCAGUGUUUUUUUGAGU [#24 K4 Tryptophan A Exclusion] | 425 | 506 | 556 | 573 | 246 |
| CGCCGCAAGGCGAGCGCUCCCACUCCGGAAGGAGCGCCCGUAAGGGCAGGUAGGUCGCCGGAGUGAUGUUCCGGUGGAGGGCUCG [#2 Exclusion - Arginine A Attempt #14 (Inspired by Omei)] | 226 | 224 | 469 | 33 | 184 |
| CGCCGUAAGGCGAGCGCUCCCACUCCGGAAGGAGCGCCCGGAAGGGCAGGUAGGUCGCCGGAGUGAUGUUCCGGUGGAGGGCUCG [#2 Exclusion - Arginine A Attempt #12 (Inspired by Omei)] | 229 | 144 | 282 | 221 | 317 |
| CGCCGUAAGGCGGUCGCUCCCACUCCGGAAGGAGCGCCCGUAAGGGCAGGUAGGUCGCCGGAGUGAUGUUCCGGUGGAGGGACCG [#2 Exclusion - Arginine A Attempt #8 (Inspired by Omei)] | 323 | 274 | 339 | 352 | 330 |
| CGCGCGCGCUUGAGAGGGCGCGCGCGAAGUGAGGAUAUUUAGGGAGAAAGAAGGCACUAUAAAAUAUAGUGAUGUUAUAUAAGGG [SSFMNA.E] | 1180 | 240 | 468 | 2790 | 441 |
| CGCGCGCGUUGAGAGGCGCGCGCGAAUGAUACCAGUAUAUAAGAAUACCCUUGGCAGCAUAAGAAAGAUAUAGUGAUGUUGUAUA [SSTheophA.E] | 67.3 | 264 | 293 | 466 | 188 |
| CGCGCGCGUUUGAGAGGGCGCGCGCGAAGUGAGGAUAUUUAGGGAGAAAGAAGGCACUAUAAAAUAUAGUGAUGUUAUAUAAGGG [SSFMNA.F] | 603 | 111 | 288 | 469 | 186 |
| CGCUCGAAAAUUAAGUGAGUGAUGUUCACUCGAGGACCGGUACGGCCGCCACUCGUCUUACGUUGAGACACUGCUCGUACUCAUA [theeternabot_exclusion_KL_Trp_A_38] | 683 | 674 | 900 | 722 | 498 |
| CGGAUGUAGUGAUGUUAUAUAAGAUGUAGACGAGGACCGGUACGGCCGCCACUCGAAACGGCUACUAGCGCGUUGCGAGGUGUGC [ExTryptoA.CI] | 952 | 460 | 960 | 674 | 514 |
| CGGAUGUAGUGAUGUUAUAUUAGAUGUAGACGAGGACCGGUACGGCCGCCACUCGAAACGGCUGCUAGCGCGUUGCGAGGUGUGC [ExTryptoA.Ck] | 341 | 525 | 1120 | 419 | 456 |
| CGGAUGUAGUGAUGUUAUAUUAGAUGUAGACGAGGACCGGUACGGCCGCCACUCGUGAUGGCUGCUAGCACGUUUCGAUGUUUGC [ExTryptoA.Cq] | 669 | 483 | 624 | 611 | 434 |
| CGGCCCGGCGCGGCCGCCACUGUGCCUGGGCGCUUGCCGAGUGAUGUUCGUCGGCGGUCGGGUGGCAGGACCGGGCGCCGGUCCG [BDazzled - #26 SS Tryptophan B] | 137 | 129 | 131 | 123 | 134 |
